Assay [1] deals with SARS-CoV-2 D614G spike protein (authentic virus) (SARS-CoV-2, UniProt P0DTC2 14-1273). In words: cell-based or functional assay.
Assay [2] concerns the target SARS-CoV-2 Alpha spike protein (authentic virus) (SARS-CoV-2, UniProt P0DTC2 14-1273). In words: cell-based or functional assay.
Assay [3] addresses SARS-CoV-2 BA.1 spike protein (authentic virus) (SARS-CoV-2, UniProt P0DTC2 14-1273). Nature of the assay: cell-based or functional assay.
Assay [4] concerns the target SARS-CoV-2 BA.1.1 spike protein (authentic virus) (SARS-CoV-2, UniProt P0DTC2 14-1273). In words: cell-based or functional assay.
For assay [5], the target named is SARS-CoV-2 BA.2 spike protein (authentic virus) (SARS-CoV-2, UniProt P0DTC2 14-1273). Nature of the assay: cell-based or functional assay.
The target in assay [6] is T1, SARS-CoV-2 BA.2.12.1 spike protein (authentic virus) (SARS-CoV-2, UniProt P0DTC2 14-1273). In words: cell-based or functional assay.
In assay [7] the target is SARS-CoV-2 BA.5 spike protein (authentic virus) (SARS-CoV-2, UniProt P0DTC2 14-1273). In words: cell-based or functional assay.
Assay [8] addresses BA.2.12.1 spike protein (pseudovirus) (SARS-CoV-2). In words: cell-based or functional assay.
Assay [9] has as its target SARS-CoV-2 spike RBD point mutant K444A (SARS-CoV-2, UniProt P0DTC2 334-526).
The target in assay [10] is SARS-CoV-2 spike RBD point mutant F486A (SARS-CoV-2, UniProt P0DTC2 334-526).
The target of assay [11] is Omicron (BA.1) spike protein (pseudovirus) (SARS-CoV-2). Nature of the assay: cell-based or functional assay.
Assay [12] deals with BA1.1 spike protein (pseudovirus) (SARS-CoV-2). In words: cell-based or functional assay.
For assay [13], the target named is BA.2 spike protein (pseudovirus) (SARS-CoV-2). Nature of the assay: cell-based or functional assay.
For assay [14], the target named is Delta spike protein (pseudovirus) (SARS-CoV-2). Nature of the assay: cell-based or functional assay.
Assay [15] addresses D614G spike protein (pseudovirus) (SARS-CoV-2). Nature of the assay: cell-based or functional assay.
For assay [16], the target named is T1, SARS-CoV-2 BA.2.12.1 spike protein …. Nature of the assay: cell-based or functional assay. This is another data set of the same source.

Results on 5 molecules are retold here after patent US20250289871A1 (AstraZeneca / MedImmune, published 2025).

B1: RQ43-GL-H-LO1 (TM-YTE) (antibody, V domains shown)
VH: EVQLVESGGGLVQPGRSLRLSCAASGFPFDDYAIHWVRLAPGKGLEWVSSISWDSGSIGYADSVKGRFTISRDNAKNSLYLQMNSLRAEDTALYYCAKGAFPGYSSGWYYGLEVWGQGTTVTVSS
VL: QSVVTQPPSASGSLGQSVTISCTGTSSDVGGYNYVSWYQQHPGKAPKLMIFEVSKRPSGVPDRFSGSKSGNTASLTVSGLQAEDEADYYCSSYAGNKGVFGGGTKLTVL
Regarding B1, the “Authentic Virus Neutralization IC50” value in assay [1] amounted to 0.099 µg/mL; in assay [2] it was 0.06 µg/mL; in assay [3] it was 0.011 µg/mL; in assay [4], 0.007 µg/mL; in assay [5], 0.031 µg/mL; in assay [6], 0.028 µg/mL. Further, the “Authentic Virus Neutralization IC50” value in [7] was determined as 0.017 µg/mL. Moreover, the “IC50 (read off the curve), pseudovirus with BA.2.12.1 spike” value in [8] was about 0.008 µg/mL.

B2: RQ43 (TM-YTE) (antibody, V domains shown)
VH: EVQLLETGGGLVQPGRSLRLSCAASGFPFDDYAIHWVRLAPGKGLEWVSSISWDSGSIGYADSVKGRFTISRDNAKNSLYLQMNSLRAEDTALYYCAKGAFPGYSSGWYYGLDVWGQGATVTVSS
VL: QSVVTQPPSASGSLGQSVTISCTGTSSDVGGYNYVSWYQQHPGKAPKLMIFEVSKRPSGVPDRFSGSKSGNTASLTVSGLQAEDEADYYCSSYAGNKGVFGGGTKLTVL
One may read the Kd as the free concentration of one partner at which half of the binding sites on the other are occupied at equilibrium, for simple one-to-one binding. A lower Kd goes with a tighter complex. For B2, the Kd in assay [9] and in assay [10] was under 0.001 nM in each case. Also, the “EC50, pseudovirus neutralization” value in assay [11] was found to be 0.0078 µg/mL; in assay [12] it was 0.006 µg/mL; in [13], 0.0105 µg/mL; in [14], 0.0259 µg/mL; in [15], 0.0158 µg/mL.

B3: RQ40 (TM-YTE) (antibody, V domains shown)
VH: EVQLVESGAEVKKPGSSVKVSCKASGGTFSSYAINWVRQAPGQGLEWMGGIIPIFRTPHYAQKFQGRVTITADESTGTAYMELSSLRSEDTAVYYCASPSCGGDCPQYLKSSKLDWYFDLWGRGTLVTVSS
VL: VIWMTQSPGTLSLSPGERATLSCRASQSVSSTYLAWYQQKPGQAPRLLIYGASSRATGIPDRFSGSGSGTDFTLTISRLEPEDFAVYYCQHYGSSPLTFGQGTRLEIK
B3: the figures for the Kd in assay [9] and in [10] were under 0.001 nM and 47.1 nM, respectively. The “EC50, pseudovirus neutralization” value in assay [11] turned out to be 0.0064 µg/mL; in [12], 0.0042 µg/mL; in assay [13] it was 0.007 µg/mL; in assay [14], 0.0112 µg/mL; in assay [15] it was 0.0099 µg/mL.

B4: RQ33 (TM-YTE) (antibody, V domains shown)
VH: QVQLQESGPGLVKPSETLSLTCTVFGGSITSSNHYWVWIRQPPGKGLEWIGSMYYSGSTAYNPSLTNRVTISVDTSKNQFSLKLSSVTAADTAVYYCARQIGPKRPSQVADWFDPWGQGTLVTVSS
VL: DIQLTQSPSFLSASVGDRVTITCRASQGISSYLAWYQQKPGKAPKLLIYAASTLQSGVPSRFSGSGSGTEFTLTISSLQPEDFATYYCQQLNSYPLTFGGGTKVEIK
B4: the Kd was 3.13 nM in assay [9] and 3.28 nM in assay [10]. Also, the “EC50, pseudovirus neutralization” value was 0.0045 µg/mL in assay [11]; 0.0031 µg/mL in assay [12]; 0.0797 µg/mL in assay [13]; 0.205 µg/mL in assay [14]; 0.191 µg/mL in assay [15]. Further, in assay [16], the “IC50 (read off the curve), FRNT, authentic BA.2.12.1 virus” value was about 0.5 µg/mL. Also, in assay [8], the “IC50 (read off the curve), pseudovirus with BA.2.12.1 spike” value was about 0.05 µg/mL.

B5: RQ41 (TM-YTE) (antibody, V domains shown)
VH: EVQLVESGGGLIQPGGSLRLSCAASEIIVSRNYMSWVRQAPGKGLEWVSVIYSGGSTFYADSVKGRFTISRDNSKNTLYLQMNSLRAEDTAVYYCARDLDVVGGTDYWGQGTLVTVSS
VL: not shown
B5: the “EC50, pseudovirus neutralization” value in assay [11] stood at 0.0062 µg/mL; in assay [12], 0.0039 µg/mL; in assay [13] it was 0.0126 µg/mL; in [14] it was 0.0182 µg/mL; in [15], 0.011 µg/mL.
